Laboratory results from patent publication US11278600B2, “Human alpha-galactosidase variants” (Codexis, Inc., priority 2014, dated 2022).
Changes are numbered by the printed parent chain.

B1: 323 (protein)
chain: LDNGLARTPTMGWLHWERFMCNLDCQEEPDSCISEKLFMEMAELMVSEGWKDAGYEYLCIDDCWMAPQRDSEGRLQADPQRFPHGIRQLANYVHSKGLKFGIYADVGNKTCAGFPGSFGYYDIDAQTFADWGVDLLKFDGCYCDSLENLADGYKHMSLAINRTGRSIVYSCEWPLYMWPFQKPNYTEIRQYCNHWRNFADIDDSWASIKSILDWTSFNQEKIVDVAGPGGWNDPDMLVIGNFGLSWNQQVTQMALWAIMAAPLFMSNDLRHISPQAKALLQDKDVIAINQDPLGKQGYQLRQGDNFEVWERPLSGLAWAVAVINRQEIGGPRSYTIAVASLGKGVACNPACFITQLLPVKRKLGFYNWTSRLKSHINPTGTVLLQLENTMQMSLKDLL
modifications: Synthetic Polypeptide sequence of Variant No. 323 of mature Human GLA
B2: 324 (protein)
chain: B1 chain with L23S, F100L, I160L, K221R, V322I
modifications: Synthetic Polypeptide sequence of Variant No. 324 of mature Human GLA
B3: 325 (protein)
chain: LDNGLARTPTMGWLHWERFMCNLDCQEEPDSCISEKLFMEMAERMVSEGWKDAGYEYLCIDDCWMAPQRDSEGRLQADPQRFPHGIRQLANYVHSKGLKLGIYADVGNKTCAGFPGSFGYYDIDAQTFADWGVDLLKFDGCYCDSLENLADGYKHMSLALNRTGRSIVYSCEWPLYMWPFQKPNYTEIRQYCNHWRNFADIDDSWASIKSILDWTSRNQERIVDVAGPGGWNDPDMLVIGNFGLSWDQQVTQMALWAIMAAPLFMSNDLRHISPQAKALLQDKDVIAINQDPLGKQGYQLRQGDNFEVWERPLSGDAWAVAIINRQEIGGPRSYTIPVASLGGGVACNPACFITQLLPVKRQLGFYNWTSRLKSHINPTGTVLLQLENTMQMSLKDLL
modifications: Synthetic Polypeptide sequence of Variant No. 325 of mature Human GLA
B4: 326 (protein)
chain: B3 chain with Q302K, G343K
modifications: Synthetic Polypeptide sequence of Variant No. 326 of mature Human GLA
B5: 327 (protein)
chain: B3 chain with Q302K, P337A, G343D, A350G
modifications: Synthetic Polypeptide sequence of Variant No. 327 of mature Human GLA
B6: 328 (protein)
chain: B3 chain with D247N, Q302K, D316L, G343K, A350G, Q362K, T369S
modifications: Synthetic Polypeptide sequence of Variant No. 328 of mature Human GLA
B7: 329 (protein)
chain: B3 chain with I208V, R217F, Q302K, D316L, P337A, G343D, Q362K
modifications: Synthetic Polypeptide sequence of Variant No. 329 of mature Human GLA
B8: 330 (protein)
chain: B1 chain with L44R, F100L, I160L, I208V, V322I, K343D
modifications: Synthetic Polypeptide sequence of Variant No. 330 of mature Human GLA
B9: 331 (protein)
chain: B1 chain with L44R, F100L, I160L, I208V, N247D, V322I, K343D, I376V
modifications: Synthetic Polypeptide sequence of Variant No. 331 of mature Human GLA
B10: 332 (protein)
chain: B1 chain with L44R, F100L, I160L, I208V, K221T, Q302K, V322I, K343G, F365L, I376V
modifications: Synthetic Polypeptide sequence of Variant No. 332 of mature Human GLA

assay: HTP-analysis of supernatants pretreated with bovine serum (MUGal hydrolysis); format: biochemical; details: activity of the variant/activity of Rd3BB (SEQ ID NO: 13), yeast culture supernatant
Method in brief: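 Yeast INVSc1 culture supernatants containing secreted GLA variants were mixed with bovine serum (20:80) and held 1 h at 37° C. Serum-treated samples then reacted with MUGal (4 mM stock) in citrate/McIlvaine buffer (pH 4.3/4.8) for 180 min at 37° C., were quenched with sodium carbonate, and read by fluorescence (Ex 355, Em 448 nm).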

Row | Molecule | Relative Activity of GLA Variants After Challenge with Serum
1 | B1 | + (+ = 0.5 to 1.5 relative activity over Rd3BB (SEQ ID NO: 13))
2 | B2 | − (− = <0.5 relative activity to Rd3BB (SEQ ID NO: 13))
3 | B3 | +++ (+++ = >2.5 relative activity over Rd3BB (SEQ ID NO: 13))
4 | B4 | +++ (+++ = >2.5 relative activity over Rd3BB (SEQ ID NO: 13))
5 | B5 | +++ (+++ = >2.5 relative activity over Rd3BB (SEQ ID NO: 13))
6 | B6 | + (+ = 0.5 to 1.5 relative activity over Rd3BB (SEQ ID NO: 13))
7 | B7 | ++ (++ = >1.5 to 2.5 relative activity over Rd3BB (SEQ ID NO: 13))
8 | B8 | + (+ = 0.5 to 1.5 relative activity over Rd3BB (SEQ ID NO: 13))
9 | B9 | + (+ = 0.5 to 1.5 relative activity over Rd3BB (SEQ ID NO: 13))
10 | B10 | + (+ = 0.5 to 1.5 relative activity over Rd3BB (SEQ ID NO: 13))

assay: HTP-analysis of yeast culture supernatants, no challenge (MUGal hydrolysis); format: biochemical; details: activity of the variant/activity of Rd3BB (SEQ ID NO: 13), yeast culture supernatant
Method in brief: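 GLA variants were expressed in INVSc1 yeast grown in SD-Ura broth with glucose at 30° C., and culture supernatants were collected after 66-84 h. Supernatant was mixed with McIlvaine buffer pH 4.8 and MUGal (2 mM stock) in 50 mM citrate, 200 mM KCl, pH 4.6, incubated at 37° C. for 30-180 minutes, then quenched with sodium carbonate.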

Row | Molecule | Relative Activity of GLA Variants After No Challenge (NC)
11 | B1 | − (− = <0.5 relative activity to Rd3BB (SEQ ID NO: 13))
12 | B2 | − (− = <0.5 relative activity to Rd3BB (SEQ ID NO: 13))
13 | B3 | ++ (++ = >1.5 to 2.5 relative activity over Rd3BB (SEQ ID NO: 13))
14 | B4 | ++ (++ = >1.5 to 2.5 relative activity over Rd3BB (SEQ ID NO: 13))
15 | B5 | ++ (++ = >1.5 to 2.5 relative activity over Rd3BB (SEQ ID NO: 13))
16 | B6 | + (+ = 0.5 to 1.5 relative activity over Rd3BB (SEQ ID NO: 13))
17 | B7 | + (+ = 0.5 to 1.5 relative activity over Rd3BB (SEQ ID NO: 13))
18 | B8 | ++ (++ = >1.5 to 2.5 relative activity over Rd3BB (SEQ ID NO: 13))
19 | B9 | + (+ = 0.5 to 1.5 relative activity over Rd3BB (SEQ ID NO: 13))
20 | B10 | + (+ = 0.5 to 1.5 relative activity over Rd3BB (SEQ ID NO: 13))

assay: HTP-analysis of supernatants pretreated with base (MUGal hydrolysis); format: biochemical; details: challenge at pH 8.2; activity of the variant/activity of Rd3BB (SEQ ID NO: 13); yeast culture supernatant
Method in brief: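 GLA variants were secreted by transformed INVSc1 yeast grown 66-84 h at 30° C. Supernatants were exposed to neutral-to-basic buffers (pH 7.0-9.7) at 37° C for 1-18 h, then assayed with MUGal in acidic citrate/McIlvaine buffer, with fluorescence read after quenching.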

Row | Molecule | Relative Activity of GLA Variants After Challenge at pH 8.2
21 | B1 | − (− = <0.5 relative activity to Rd3BB (SEQ ID NO: 13))
22 | B2 | − (− = <0.5 relative activity to Rd3BB (SEQ ID NO: 13))
23 | B3 | +++ (+++ = >2.5 relative activity over Rd3BB (SEQ ID NO: 13))
24 | B4 | +++ (+++ = >2.5 relative activity over Rd3BB (SEQ ID NO: 13))
25 | B5 | +++ (+++ = >2.5 relative activity over Rd3BB (SEQ ID NO: 13))
26 | B6 | + (+ = 0.5 to 1.5 relative activity over Rd3BB (SEQ ID NO: 13))
27 | B7 | ++ (++ = >1.5 to 2.5 relative activity over Rd3BB (SEQ ID NO: 13))
28 | B8 | + (+ = 0.5 to 1.5 relative activity over Rd3BB (SEQ ID NO: 13))
29 | B9 | ++ (++ = >1.5 to 2.5 relative activity over Rd3BB (SEQ ID NO: 13))
30 | B10 | + (+ = 0.5 to 1.5 relative activity over Rd3BB (SEQ ID NO: 13))

assay: HTP-analysis of supernatants pretreated with acid (MUGal hydrolysis); format: biochemical; details: challenge at pH 4.0; activity of the variant/activity of Rd3BB (SEQ ID NO: 13); yeast culture supernatant
Method in brief: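 Supernatants from INVSc1 yeast secreting GLA variants were challenged at 37° C. for 1-3 h in McIlvaine buffer at pH 3.3-4.3. Residual activity was then measured on 4 mM MUGal substrate stock at pH 4.8 with citrate buffer pH 4.3, over 30-180 min at 37° C. Reactions were quenched with sodium carbonate and read by fluorescence (Ex 355/Em 448 nm).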

Row | Molecule | Relative Activity of GLA Variants After Challenge at pH 4.0
31 | B1 | − (− = <0.5 relative activity to Rd3BB (SEQ ID NO: 13))
32 | B2 | − (− = <0.5 relative activity to Rd3BB (SEQ ID NO: 13))
33 | B3 | +++ (+++ = >2.5 relative activity over Rd3BB (SEQ ID NO: 13))
34 | B4 | +++ (+++ = >2.5 relative activity over Rd3BB (SEQ ID NO: 13))
35 | B5 | +++ (+++ = >2.5 relative activity over Rd3BB (SEQ ID NO: 13))
36 | B6 | + (+ = 0.5 to 1.5 relative activity over Rd3BB (SEQ ID NO: 13))
37 | B7 | ++ (++ = >1.5 to 2.5 relative activity over Rd3BB (SEQ ID NO: 13))
38 | B8 | ++ (++ = >1.5 to 2.5 relative activity over Rd3BB (SEQ ID NO: 13))
39 | B9 | ++ (++ = >1.5 to 2.5 relative activity over Rd3BB (SEQ ID NO: 13))
40 | B10 | + (+ = 0.5 to 1.5 relative activity over Rd3BB (SEQ ID NO: 13))
